Three molecules from patent US20260250398A1 can be followed below.

The assay concerns the target FZD1/2/4/5/7/8. The assay can be described thus: cell-based or functional assay.

B1: CH3 (Dia-CH3-Dia; paratopes 5019; 2539) (bispecific antibody)
chain: MNLLLILTFVAAAVAEFEVQLVESGGGLVQPGGSLRLSCAASGFNIGSSSIHWVRQAPGKGLEWVASIYSAFASTSYADSVKGRFTISADTSKNTAYLQMNSLRAEDTAVYYCARYHFPFGFALDYWGQGTLVTVSSGGGGSDIQMTQSPSSLSASVGDRVTITCRASQSVSSAVAWYQQKPGKAPKLLIYSASSLYSGVPSRFSGSRSGTDFTLTISSLQPEDFATYYCQQGVYLFTFGQGTKVEIKDKTHTKVEPKTSDKTHTCPPCPGQPREPQVYTLPPSREEMTKNQVSLTCLVKGFYPSDIAVEWESNGQPENNYKTTPPVLDSDGSFFLYSKLTVDKSRWQQGNVFSCSVMHEALHNHYTQKSLSLSPGKGTTAASGSSGGSSSGAGRTEVQLVESGGGLVQPGGSLRLSCAASGFNISYSSIHWVRQAPGKGLEWVAYISSYYGYTYYADSVKGRFTISADTSKNTAYLQMNSLRAEDTAVYYCARAHYFPWAGAMDYWGQGTLVTVSSGGGGSDIQMTQSPSSLSASVGDRVTITCRASQSVSSAVAWYQQKPGKAPKLLIYSASSLYSGVPSRFSGSRSGTDFTLTISSLQPEDFATYYCQQYSWGPFTFGQGTKVEIK
For B1, the TOPFLASH Maximal Signal (% Wnt3a maxima) (% Wnt3a maxima) was 22.

B2: Fab-Dia (paratopes 5016; 2540/2542) (bispecific antibody)
heavy: EVQLVESGGGLVQPGGSLRLSCAASGFNIHSSSIHWVRQAPGKGLEWVAATYSSFGSITYADSVKGRFTISADTSKNTAYLQMNSLRAEDTAVYYCARYHHPFGYALDYWGQGTLVTVSSASTKGPSVFPLAPSSKSTSGGTAALGCLVKDYFPEPVTVSWNSGALTSGVHTFPAVLQSSGLYSLSSVVTVPSSSLGTQTYICNVNHKPSNTKVDKKVEPKSCDKTHTGGSGGEVQLVESGGGLVQPGGSLRLSCAASGFTISYSSIHWVRQAPGKGLEWVASISPYYGYTYYADSVKGRFTISADTSKNTAYLQMNSLRAEDTAVYYCARSSYFPWFSAMDYWGQGTLVTVSSGGGGSDIQMTQSPSSLSASVGDRVTITCRASQSVSSAVAWYQQKPGKAPKLLIYSASSLYSGVPSRFSGSRSGTDFTLTISSLQPEDFATYYCQQYYWPITFGQGTKVEIK
light: DIQMTQSPSSLSASVGDRVTITCRASQSVSSAVAWYQQKPGKAPKLLIYSASSLYSGVPSRFSGSRSGTDFTLTISSLQPEDFATYYCQQGVYLFTFGQGTKVEIKRTVAAPSVFIFPPSDEQLKSGTASVVCLLNNFYPREAKVQWKVDNALQSGNSQESVTEQDSKDSTYSLSSTLTLSKADYEKHKVYACEVTHQGLSSPVTKSFNRGECGGGGSEVQLVESGGGLVQPGGSLRLSCAASGFTISSYYIHWVRQAPGKGLEWVASIYSSYGYTSYADSVKGRFTISADTSKNTAYLQMNSLRAEDTAVYYCARTVRGSKKPYFSGWAMDYWGQGTLVTVSSGGGGSDIQMTQSPSSLSASVGDRVTITCRASQSVSSAVAWYQQKPGKAPKLLIYSASSLYSGVPSRFSGSRSGTDFTLTISSLQPEDFATYYCQQYYFLITFGQGTKVEIK
B2 returned a TOPFLASH EC50 of 0.4 nM and a TOPFLASH Maximal Signal (% Wnt3a maxima) (% Wnt3a maxima) of 42.

B3: CT0003 (Table 5: FZD Diabody-Fc-LRP scFv; paratopes 5016; 2539, 2542) (bispecific antibody)
chain 1: MNLLLILTFVAAAVAEFEVQLVESGGGLVQPGGSLRLSCAASGFNISSYYIHWVRQAPGKGLEWVASIYSSYGYTSYADSVKGRFTISADTSKNTAYLQMNSLRAEDTAVYYCARTVRGSKKPYFSGWAMDYWGQGTLVTVSSGGGGSDIQMTQSPSSLSASVGDRVTITCRASQSVSSAVAWYQQKPGKAPKLLIYSASSLYSGVPSRFSGSRSGTDFTLTISSLQPEDFATYYCQQYSWGPFTFGQGTKVEIKLEDKTHTKVEPKSSDKTHNCPPCPAPELLGGPSVFLFPPKPKDTLMISRTPEVTCVVVDVSHEDPEVKFNWYVDGVEVHNAKTKPREEQYNSTYRVVSVLTVLHQDWLNGKEYKCKVSNKALPAPIEKTISKAKGQPREPQVYTLPPIRELMTSNQVSLSCAVKGFYPSDIAVEWESNGQPENNYKTTPPVLDSDGSFFLVSKLTVDKSRWQQGNVFSCSVMHEALHNHYTQKSLSLSPGKSGSETPGTSESATPESGGGEVQLVESGGGLVQPGGSLRLSCAASGFNIHSSSIHWVRQAPGKGLEWVAATYSSFGSITYADSVKGRFTISADTSKNTAYLQMNSLRAEDTAVYYCARYHHPFGYALDYWGQGTLVTVSSGTTAASGSSGGSSSGADIQMTQSPSSLSASVGDRVTITCRASQSVSSAVAWYQQKPGKAPKLLIYSASSLYSGVPSRFSGSRSGTDFTLTISSLQPEDFATYYCQQGVYLFTFGQGTKVEIK
chain 2: MNLLLILTFVAAAVAEFEVQLVESGGGLVQPGGSLRLSCAASGFNISYSSIHWVRQAPGKGLEWVAYISSYYGYTYYADSVKGRFTISADTSKNTAYLQMNSLRAEDTAVYYCARAHYFPWAGAMDYWGQGTLVTVSSGGGGDIQMTQSPSSLSASVGDRVTITCRASQSVSSAVAWYQQKPGKAPKLLIYSASSLYSGVPSRFSGSRSGTDFTLTISSLQPEDFATYYCQQYYWPITFGQGTKVEIKLEDKTHTKVEPKTSDKTHTCPPCPAPELLGGPSVFLFPPKPKDTLMISRTPEVTCVVVDVSHEDPEVKFNWYVDGVEVHNAKTKPREEQYNSTYRVVSVLTVLHQDWLNGKEYKCKVSNKALPAPIEKTISKAKGQPREPMVFDLPPSREEMTKNQVSLWCMVKGFYPSDIAVEWESNGQPENNYKTTPPVLDSDGSFFLYSKLTVDKSRWQQGNVFSCSVMHEALHNHYTQKSLSLSPGKSGSETPGTSESATPESGGGEVQLVESGGGLVQPGGSLRLSCAASGFNIHSSSIHWVRQAPGKGLEWVAATYSSFGSITYADSVKGRFTISADTSKNTAYLQMNSLRAEDTAVYYCARYHHPFGYALDYWGQGTLVTVSSGTTAASGSSGGSSSGADIQMTQSPSSLSASVGDRVTITCRASQSVSSAVAWYQQKPGKAPKLLIYSASSLYSGVPSRFSGSRSGTDFTLTISSLQPEDFATYYCQQGVYLFTFGQGTKVEIK
For B3, the TOPFLASH % Wnt Maxima is 42 % Wnt Maxima and the TOPFLASH EC50 was 0.4 nM.
